Results as given in patent US20130084295A1.
Substitutions are numbered along the chain they refer to.

Key:
[1] = molecular target: IFN-α (subtype not stated; antigen of the ELISA, BIAcore and Kinexa assays of Example 2) (human); assay: ELISA, IFN-α coated at 0.1 µg/ml, F(ab) at 10 µg/ml; SD 0.06, N 3
[2] = molecular target: IFN-α (subtype not stated; antigen of the ELISA, BIAcore and Kinexa assays of Example 2) (human); assay: ELISA, IFN-α coated at 0.1 µg/ml, F(ab) at 10 µg/ml; SD 0.00, N 3
[3] = molecular target: IFN-α (subtype not stated; antigen of the ELISA, BIAcore and Kinexa assays of Example 2) (human); assay: ELISA, IFN-α coated at 0.1 µg/ml, F(ab) at 10 µg/ml; SD 0.32, N 3
[4] = molecular target: IFN-α (subtype not stated; antigen of the ELISA, BIAcore and Kinexa assays of Example 2) (human); assay: ELISA, IFN-α coated at 0.1 µg/ml, F(ab) at 10 µg/ml; SD 0.05, N 3
[5] = molecular target: IFN-α (subtype not stated; antigen of the ELISA, BIAcore and Kinexa assays of Example 2) (human); assay: Kinexa
[6] = molecular target: IFN-α (subtype not stated; antigen of the ELISA, BIAcore and Kinexa assays of Example 2) (human); assay: Kinexa; remark: listed apart in the source
[7] = molecular target: leukocyte interferon (Sigma Product No. 1-2396): heterogeneous collection of IFN-α subtypes produced by activated leukocytes; assay: cell-based or functional assay

B1: humanized 9F3 F(ab) version F-11 (Fab, V domains shown)
VH: EVQLVESGGGLVQPGGSLRLSCATSGYTFTEYIIHWVRQAPGKGLEWVASINPDYDITNYNQRFKGRFTISLDKSSNTAYLQMNSLRAEDTAVYYCASWISDFFDYWGQGTLVTVSS
VL: DIQMTQSPSSLSASVGDRVTITCRASQSVSTSSYSYMHWYQQKPGKAPKLLIYYASNLESGVPSRFSGSGSGTDFTLTISSLQPEDFATYYCQHSWGIPRTFGQGTKVEIK
B1 gave an OD450 nm at 10 µg/ml (mean) [1] of 0.642 OD450 nm.

B2: humanized 9F3 F(ab) version F-1 (Fab, V domains shown)
VH: B1 VH with T24A, L72R, K74N, S76K, A79L, S98R
VL: B1 VL
In the case of B2, the OD450 nm at 10 µg/ml (mean) [2] is reported as 0.06 OD450 nm.

B3: humanized 9F3 F(ab) version F-15 (Fab, V domains shown)
VH: B1 VH with K74N, S76K, N77R
VL: B1 VL with L50V, Y53S
Binder B3 has an OD450 nm at 10 µg/ml (mean) [3] of 0.868 OD450 nm.

B4: humanized 9F3 F(ab) version F-14 (Fab, V domains shown)
VH: B1 VH with L72R, S76K, N77R
VL: B1 VL with L50V, Y53S
B4 was tested, and the OD450 nm at 10 µg/ml (mean) [1] was 0.472 OD450 nm.

B5: humanized 9F3 F(ab) version F-12 (Fab, V domains shown)
VH: B1 VH with S76K, N77R
VL: B1 VL
For B5, the OD450 nm at 10 µg/ml (mean) [4] was 0.912 OD450 nm.

B6: humanized recombinant anti-IFN-α monoclonal antibody V13IgG2 (antibody, V domains shown)
VH: B1 VH with S76K, N77R
VL: DIQMTQSPSSLSASVGDRVTITCRASQSVSTSSYSYMHWYQQKPGKAPKVLISYASNLESGVPSRFSGSGSGTDFTLTISSLQPEDFATYYCQHSWGIPRTFGQGTKVEIKR
B6 gave a fold reduction of affinity against the parental murine 9F3 antibody [5] of 2 fold.

B7: murine anti-human IFN-α monoclonal antibody 9F3 (antibody, IgG2, V domains shown)
VL: DIVLTQSPASLAVSLGQRATISCRASQSVSTSSYSYMHWYQQKPGQPPKVLISYASNLESGVPARFSGSGSGTDFTLNIHPVEEGDTATYFCQHSWGIPRTFGAGTKLELRRAV
VH: EVQLQQSGPELVKPGASVKISCKTSGYTFTEYIIHWVKQGHGRSLEWIGSINPDYDITNYNQRFKGKATLTLDKSSRTAYLELRSLTSEDSAVYYCASWISDFFDYWGQGTTLMVSAAS
B7 was tested, and the Kd [6] was 1.5 pM and the neutralization of anti-viral activity (EMC virus, A549 cells; 10 µg/ml mAb) [7] was > 95%.
